Data: patent publication US12297265B2, “Antibody and use thereof” (SICHUAN KELUN-BIOTECH BIOPHARMACEUTICAL CO., LTD., priority 2018, dated 2025)
Marks after values point to notes of the source that are not given here.

What was measured:
[1] = system: Ba/F3-Claudin 18.2 cells; test: ADCC activity on Ba/F3-Claudin 18.2 cells (NK-92MI_mCD16, CytoTox-Glo); assay type: cell-based; details: Ba/F3-Claudin 18.2 target cells, NK-92MI_mCD16 effector cells, 6h
Procedure: In order to evaluate the ADCC activity, ten thousand Ba/F3-Claudin18.2 cells were cultured in 40 μl NK-92 media. Antibodies were serially diluted in 10 μl PBS. Fifty thousand NK-92MI_mCD16 cells in 50 μl NK-92 media were added and the reactions were incubated at 37° C. for 6h. 33.3 μl CytoTox-Glo (Promega, G9290) was added to each reaction […].

[2] = system: HEK293T-Claudin 18.2 cells; test: CDC killing of HEK293T-Claudin 18.2 cells (guinea pig serum, CCK8); assay type: cell-based; details: 20% guinea pig serum, 3 h
Procedure: The procedure is described as follows: HEK293T-Claudin 18.2 cells were harvested and centrifuged followed by adjustment of cell density. 5×10^4/well of cells were plated on a plate and incubated overnight. […] Starting from 20 μg/mL, 10 concentrations were prepared with two-fold dilution. The original cell culture media for HEK293T-Claudin 18.2 cells was removed, and the antibody dilutions were added to the corresponding wells, 100 μL/well. 10 μl/well lysis buffer was provided as the positive control. The reactions were left to stand in incubator at 37° C., 5% CO2 and incubated for 3 h. Then, CCK8 (Rhinogen, QDY-003-D) was added at 20 μl/well and allowed to react for 2h. Absorbance at 450 nm were taken on a plate reader (MD, SpectraMax M2). The results were subjected to curve fitting by Graphpad Prism.

[3] = system: HEK293T-Claudin 18.2 cells; test: NK cell mediated ADCC on HEK293T-Claudin 18.2 cells (LDH); assay type: cell-based; details: HEK293T-Claudin 18.2 target cells
Procedure: (§1) The steps were as follows: HEK293T-Claudin 18.2, L929-Claudin 18.2, KATOIII-Claudin 18.2 and NUGC-4 cells were harvested and centrifuged followed by adjustment of cell density. 1×10^4/well of cells were plated on a plate and incubated overnight. The medium was removed on the next day. NK92MI-CD16a cells (Huabo Biopharm) were centrifuged, resuspended in MEMA medium and adjusted to 1×10^6/mL, then 50 μL/well cells were added to the corresponding wells. […] For HEK293T-Claudin18.2, L929-Claudin18.2 and KATOIII-Claudin18.2 cells, ten antibody concentrations were tested, starting from 40 μg/mL with 5-fold dilution. For NUGC-4 cells, eleven antibody concentrations were tested, starting from 2 mg/mL with 5-fold dilution. 50 μL/well of the diluted antibodies were added to the corresponding wells and the reactions were left to stand in incubator at 37° C., 5% CO2 and incubated for 5.5h. Lysis buffer was then added to the positive control well and incubated for another 0.5h. 50 μL/well of Lactate Dehydrogenase (LDH) detection agent (DOJINDO LABORATORISE, CK12) were added to the wells and the absorbance at 490 nm were taken every 10 min on a plate reader (MD, SpectraMax M2). The results were imported into Graphpad Prism for curve fitting.
The cell used was HEK293T-Claudin 18.2. The ADCC activity of antibody 2C6.9-hz21 on HEK293T-Claudin 18.2 is stronger than that of IMAB362.

[4] = system: L929-Claudin 18.2 cells; test: NK cell mediated ADCC on L929-Claudin 18.2 cells (LDH); assay type: cell-based; details: L929-Claudin 18.2 target cells, NK92MI-CD16a effector cells
Procedure: as §1

[5] = system: NUGC-4 cells; test: NK cell mediated ADCC on NUGC-4 cells (LDH); assay type: cell-based, human; details: NUGC-4 target cells, NK92MI-CD16a effector cells
Procedure: as §1

[6] = molecular target: human Claudin18.2 (Homo sapiens, UniProt P56856); test: Cellular ELISA on L929-Claudin 18.2 cells; assay type: binding; set-up: expressed in transfected cells; host or cells: L929, infected with pLVX-IRES-puro lentivirus, puromycin-selected monoclonal line; cells were formaldehyde-fixed for the cellular ELISA
Procedure: Human Claudin18.2 is a four transmembrane protein and has a complex structure. Cellular ELISA was thus carried out to maintain the structure of Claudin18.2. The stable cell line L929-Claudin 18.2 constructed in Example 1 were used for detection. Specifically, L929-Claudin 18.2 adherent cells were detached by 2 mM EDTA treatment. The cells were resuspended and adjusted to 2×10^5/mL and 100 μL of the resuspension was plated into 96 well plate and incubated overnight at 37° C. The next day, the media was removed, and the plate was washed with PBS once. 100 μL/well 4% formaldehyde was added to the plate. After 30 min of incubation at room temperature, formaldehyde was removed, followed by washing twice with PBS. Blocking buffer (PBS containing 2% BSA) was then added to the plate at 100 μL/well, and incubated at 37° C. for 2 h. After removal of blocking buffer, 100 μL/well of serially diluted antibodies (starting from 1 μM, with 4-fold dilution, for a total of 11 concentrations) were added to the corresponding wells, which were incubated at 37° C. for 2h afterwards. The plate was washed with 250 μL PBST for 5 times, and was allowed to stand for 2 min each time. 100 μL/well of horseradish peroxidase labeled anti-Human IgG secondary antibody (HRP-anti-Human IgG, Jackson ImmunoResearch, 109-035-003) diluted 1:10000 in PBS (containing 2% BSA) was added to the plate. The plate was incubated at 37° C. for 1 h and washed with 250 μL PB ST 6 times, wherein the plate was allowed to stand for 2 min each time. 100 μL/well of TMB solution (Thermo, 34029) was added. The reactions were incubated at 37° C. for 20 min and stopped with 50 μL 2 mol/L H2504. The absorbance at 450 nm was read on a plate reader (MD, SpectraMax M2) and the results were subjected to curve fitting by Graphpad Prism.

In the case of “IMAB362: Zolbetuximab (IMAB362) developed by Astellas, human-mouse chimeric IgG1 antibody targeting Claudin 18.2; control antibody, sequences from CN 101312989 B [reference compound]”, the “ADCC EC50” value [1] is reported as 0.351* μg/mL, the Max killing rate [1] is reported as 54.17* % and the “maximal killing rate (CDC)” value [2] is reported as “about 70%”. For the same substance, the “Max. Cytotoxicity” value ([3]; NK92MI-CD16a effector cells, Table 13) was 55%, the “Max Cytotoxicity” value ([3]; Table 14 experiment) was 20% and the “Max. Cytotoxicity” value [4] was 52%. For the same substance, the “Max. Cytotoxicity” value [5] was 35%, the “Max Signal Value (OD450)” value ([6]; Table 8 experiment) was 0.82 OD450 and the “Max Signal Value (OD450)” value ([6]; Table 9 experiment) was 0.53 OD450.
